The record followed here is patent US20070224186A1.

Where no end group is shown, it is not given here.

This assay addresses EG(2)-HepN. Briefly: competitive ELISA with EG(2)-HepN; competitor N-terminally biotinylated hepcidin-(28-47).

Molecule PQQTGQLAELQPQDRAGARA (not fully specified (C-terminus)) [hepcidin-(28-47)] returned a detection limit of the ELISA of 0.1 ng/well.
